Assay: label from the status in PepcDB records

Sequence | protein production
MRCCHSGKSYRLWGHRSSQRHRSGETGRGRLRIDQPGAASRRGSRALSWCGCHHVPCPDVTGAGRVRATCRRSFVHERNPHLHMLDAFHRGDVGLYTGTMTAPALLSREAELSRRDLIALESRLREAVSRFLPFKAYSLYFPREAETVEPLWLPGEGRLLLPLIHGGALLAVFVARGVPRRIVRSLMPAFPGLLALCMENLALYKAGRTDALTGLSTRQHLVERMAREADHVRTCFANPPEGEGDLGAPLHRACMGLVVVRLASLRQVARDHGYTFADRLTTELARELSALAPEQALAARTGDYEFALLVPAAASGVCRKLAEEAVQRLSAVSLRCGLTEKAVRVCVSAGYAVYPRDMEGALFERDMAEQARVLLRKARLAAAVAGEGEGSEGPGVMGFARILAEGGAVVETHPLSRVMVNLGRSMNAREGQRFSVWSVAYPVRGGTHEPRQPLYKGEVVLLEVREDRSVAEILHLGDPTWPIEPGDRLTLLPEEKGGDARRDASGVQVDPLTGLYRHGDFLARWSEAREGCDCFALALVRFSDDGRDPEGRASHPEQLMAEAAQLCRDHFGAETLGGRYGLNSIVFFHPDMTCDAARESYRQLCDLLSKRLRIDAAVGVGCHPFLAYRRADALENALKALEYALLLPEPRVGIFDSLALNISADKRFSLGDTFGAIEEYKTALLADEGNTMAWNSLGVCMAGLGRHGEARRYFEQALQRKPGDPMALYNLGTVCQSLGETAEARKQYRKCLKYAPGHVFALVRLGQLAEGEKRYAQARQYFNKAARAGDSGGLVHRNLARLSMRQGRPDEAREHLHDALLRNPQDAVALQLMARLYLDGGEDPAMAEALSRQSVALRPDLKQGWLELARALDARGHVAEAREARLRAGER | failed
MRCGWLLGFLFLLSVLSYPRPAVAMTVLAEEYAPLSYSVDGQPRGFAVELFHELERRLALPPSDVTFMAWSRAYRLLLRGPRHAILFMGRTMEREDKVWFVGPIWVEDDYFYKKAGSHVAAATLDEARTVSRIGVVRDDFYQLRLQEMGFTNLDLGTSHEQGLRKLAQGRVDLVPMGELTAASQIANYPGLSMDSFERTDIHLLRSEMYIGFSRDMAWVEVERWQKALDHLRQDGTYDQILRKFVPQWRSR | failed
MRCKRHTVDFSSSIGVCASCLRERLFTLAVSTAASENDDNDHRHSRISPPPLLFPRSVSPYVAPRKSDAGTGTGAGGRDSVASSNNRFFATPQVVVQSSSSEKVFESDRSFKKKKSGLSRFSSFFRTRSDDYDSRRDSCDASTVFSQPSSATTSRSWFSKVISVRSKKQSTTNTCYIEDLIASESDHHHHNQNRPRQRYCRGMSPAGDSTTNDESVEESPGRLRRTPVMGTPGRKKTATIGIGRSVSGMAFCLSPLVRAKPNCSSNWKAKFPPDFGYSGELKSPAKPHLSTAASFCGNRSKKLVDLGRVDHRR | failed
MRCRVYYEDTDSEGVVYHANYLKYCERARSEFFFKQNVLPENEEGVFVIRSIKADFFTPASLGQVLEIRTQIKELRKVFVVLFQEIYCIQNASLEPMKPFKVFASEIKFGFVNRSTYSPIAIPKLFKELLNAI | failed
MRDFLVRYFPTFMLTVLLGCFSASLLLSLAGTTYWRAMAPPQRDEYLLFGLLVLIPLLVLGNLLIVRGISRAVWLVAGYFVACLLGVVPMFQYHPHQGVYLFGVLLPLLGLLLLNSKRHREMRERLLQIRQQRQRFKQQRKRG | failed
MRDILKKELILLGILISISFAGCVDQNPEEYYSKGILQYDDGNYTESIDLFEKAIQLNPEESKYWLMKGKALYNLERYEEAVDCYNYVINVIEDEYNKDVWAAKADALRHIEGKEVEAEIAEARAK | failed
MRDITAQGSNVEEAIQNALATLETTRDKVEVEVLDEGKKGIFGIGSRLAMVKVIEKEDGIQVAIDYLLDVATKMGAVITIDVEEVGKDVKLQIKGESLGMLIGKHGQTLNALQYLTQLIANKTTSQYKNIIVNVGDYRERRHETLVLLANKMADKALKTKRAVHLEPMPSFERKIIHAILSENEQIETHSEGRDPYRYIVIKPVKK | failed
MRDTIPVTILSGSLGAGKTTLLNHLLTEAGDRDIAVLVNDMGTVNVDAELIAEGSELDVDDGVAELSNGCICCELQDDLETAVVRLADDRDFDALVVESSGISEPAPVARLFTTESRVAALYRVDTLVTVLDTRLFLDSFAGETPERRGSGEASADGDGDDTEADGADRPLSDLMVEQVELSNLVVLNKTDLCTDEEMDEAEELVRALQPDAETIRTTFSQVDPDRLFDRALFDQTEISDLPGWKRALAESGHGHGEGSHDHGGDSHETDAHEGDTGHGHDDHHHPEEVYGVTSFTYRRRRPFHPDRLAEVLQDLPSGVVRSKGTVWLAGSERRVVIGQAGPSIRAEAQGPWIASLPEVEQDMYRSNRPELDWHDEHGDRRTELVFIGTDYDESALRTALDDALVTDEEWTESESLTGPFPAEQGEEAVIRSP | not failed
MRDYVEIGMGREARRTYHLDSVAIVPSRRTRSSKDVDTTWHIDAYTFDIPFMSHPTDALATPDFVIEMDKQGGLGVINAEGLWGRHADLDAAIQEVITAYGDDELDLGSCNRATKKLQELHAAALDTELLVERIAQVRSSGAT | failed
MREAIIKRAAKELKEGMYVNLGIGLPTLVANEVSGMNIVFQSENGLLGIGAYPLEGSVDADLINAGKETITVVPGASFFNSADSFAMIRGGHIDLAILGGMEVSQNGDLANWMIPKKLIKGMGGAMDLVHGAKKVIVIMEHCNKYGESKVKKECSLPLTGKGVVHQLITDLAVFEFSNNAMKLVELQEGVSLDQVKEKTEAEFEVRL | failed
MREIIVDNFAGGGGASTGIELAIGRSVDIAINHDPNAVAMHTTNHPDTLHYCESVYSIRPKVATAGRRVGLAWFSPDCRHFSKAKGAKPVEKTIRGLAWIVIRWALDVGPRVMMLENVEEFKTWGPLLAAEMRPDPERVGETFQAFVGMLTTGIPADHPALLECCEFLNISLDSEDAARLVNGLGYTVEYRELRACDYGAPTIRKRFFMVMRRDGQPIVWPEATHGDPKSPAVLAGKLAPWRTAAECIDWSIPAPSIFDRKKPLVENSLKRIARGI | failed
MRELFKSVRGFFRLLRMIFPKRLKNAFLGLSELFYYASSLSFYTILSLSPILLFVFSLFVSHYLQAHSGEMEALIFPNAPKLIGAIKDFLENFKKTDMTLGTLEEVSIVVALVLFCENYRSIASKIFQAKPRDYAHFKGKEIFLFWGFGTTLVFLFALPLVVFFDIKIQVFFEDKNSNLLHVLRWIGTYAFFLILFTIPTNKVFKHYFWVFLWVFFTSVSWHVLKWAFTYYVLYNRTYHELYGSVSILWFLMSWVYVSWLVILIGMYGCKVCDAFDPKEVFKKFLGFFKKET | failed
MRERAASARGVQLARSSRVFRKAEWWNDARRFRTVIASAAKQSDRHRGDSPGLLRCARNDACEAMAERHTATGSDRSTSSLASFELRVERNATFPGNVTRLLHLIVVLLLVAGRTAFAAPCQFESQGDGRVAAIVDARSVRLDDGREIRLTGIEPTATTKQALASLLVGRDVTLRSADDTPDRYGRQGGLIFIGDSDTPVQAMLLAQGDAIVSAEIADKDCAAALMSSEAEARRQKKGNWADPSAIKNAESPDDILAGIGRFVVVEGKVLSVRQAGAMTYLNFGRNWTRGFAVTISRRASPAFETAGIALKSLENRRIRVRGWVEGNTGPRIDVRLVGQVELLGANEPAGVRP | failed
MRERVLFFDLLRCVAAVAVIAIHVLAPYRNELGVIPMDQWLTAVGVNSVTRWAVPVFILITGALMLSDTRPFDGKYYVKRRLGKVLVPFLIWSTFYAYLSGWTAQGFDFETVKEVLSNSPFHATYYHLGFFYYFIPLYFVIPLFQWMARNVDDNVLYTYLAFWMFTSTLFLFKIDGPWSNQMWLYMGYLPLGYVLFQKVPLNRSMVTLFTGFGLVALAVTFTMVVTNSLEAEKYTVGRWLSYKTLNVILAASMIFMLCRYFGEGLPKNVQKVVSFISQHSLGIYLLHPIFLWPMKEFGWYTGHPGWVIPVWIVLSGAGALAMSYLFSKSAKTRWLLP | failed
MRETFADDLRSLHNKLIEMGRLTEVALQQAIEAFQTQNKNLAMAVIDGDGSIDKLEEEVNDFALWLIAKQQPVATDLRRIVAAIKIASDIERIADFAVNIAKACIRIGGQPFVMDIGPLVLMYRLATDMVSTAIAAYDREDASLAAQIADMDHRVDEQYGEMMKSLLEVEKTDKETLAQMNVLALVARYIERTADHATNIAEHLVYLVKGKHYDFND | not failed
MRETRPNPQEILKEINKNEKDSKRGKLKIFFGYAAGVGKTYAMLEAAHSAIAMGLDVVVGYIEPHTRPETLALLEGLELLPNLEVAYRGLVLREFNLDLALSRKPDLIIVDELAHTNVKGLRHEKRYSDIEELLDAGIDVYTTLNVQHIESLNDVVASITNIVVKERIPDRIFKNAFQIELIDVDPSVLIERLNSGKIYVKNQAKKALKNFFIRENLVALRELALRETANSVNKEVMINKNENFYHTNEHILVCLSSSPSNSKVIRTSARMAEAFHGKFTALFVETTSSRELKEGNIERLREHVKLAKDLGAKIETVYGDDVAYQVSEFSKISSVSKVIIGRTKKKRHLWSRFGIVDRLIELAPELDVYIIPDEEENVEDINKICLNKEKITIKDSLKTLGILIITIIISLFFENLGFSEANIIIVFILGVLIIAKETYGRIYGVISSLFSVLLFNFFFTEPKFTFNAYDSSYIFTFFIMLVSALITSTLTNKVKVQANKSAITAYRTNILLESSSELGRCSDLEEIILKSQEQVSRLVKKPVVVYKAKNSQIENIYNYKFKDGSELSDKYINLDEQGVVLWVINNRKYAGKGTETLPGAKAMYIPVLGQEDIGIVIGIILEEGEELEEGEKSLLIAMINQVSFVIDNYILEEAKKQALMQAENEKFKANLLRAVSHDLRTPLTSISGSASLLLNNNFDEETKRKLTLDIYDDSIWLINLVENLLSVSRIDNGNINLNREAQLVEEIILEALQHVNRNACDYNIEIDLKDELLMVNADVRLIIQVIINIVDNAIKYTEKGSNIKISAFSKGDNVIIEIADNGVGISKEDKEHIFDMFFTSKKNISDSRRGLGLGLALCKSIINVHEGEIYVRDNKPRGTIIGFSLQRFEVNNNETSNFSY | failed
MRETVKLIEVARELPVSRKNLQMLLLLLLCGAAAYIINLADPALEPLFLALVFGIVAGNLQRDEEKKRVVERYVPFLLPIGITLYGVNINIPYLGEFHPEIVAATLISTSLIFLTVFWLSSRLKLSRQMSILLACGSGICGVSAIAIISPLIKPRKEEFSAAIMIITAVGLTGAILYPSIAHYASISPDEFAVLAGATLHQTGIVKISSQLFGVEEEALAIKGIRIAMIALVVLILSIIYSESRFYVPWYIVSFLGVALFSSTYLPGEVVQALRPLATVMFATTLAAICYTVNVGRVQRVGVKPLFASYAGWAVGVAFVLLLLGSGAL | failed
MRFHLPGPEDTVRLGRALAKALLQIDGLRVVLLAGTLGSGKTTMTRGLVAELPGGGMAEVSSPSFNICNLYPTTPPTAHFDLYRLEGNEPDDALLDLIDEGESIILIEWAEHLPEYALPPVWLRLAWHAAGEGRIVEAHGNGAPALVALDMVAAGVPDLVQP | failed
MRFLFSLIGLVYSSLIKLAVPFNPKARMMVRGRWKVWRQLREGIVPGGRYIWFHAASLGEFEQGRPMIERIRSEYPDYRIVLTFFSPSGYEVRKNYEGADVIVYLPADRLPRVRKFLDLVKPEMAIFIKYDFWPCFLTELERRQIPTYLVSSIFRPSQLFFRWYGGAYKRLLHCFTHIFVQDKASRLLLEKHGIDHVSVAGDTRFDRVISVYEARKSLPLIERFAASVPEDGLVIVGGSSWPPDEEILVRYFNRNPKIKLILAPHEIDKEHLLQIISHIRRPFIRLSEATESDIARQDCLIVDSFGLLSSIYRYGQVAFIGGGFGKGIHNTPEAAVYGIPVIFGPRYEKFKEARELIDVGGGFSVSSAEEFGNLIKRIQTDKAYRDAASRAAADYIRSNAGATGYIVHRIMKLEHHHHHH | not failed
